Test results published in US20260250320A1, “LIPIDATED PEPTIDE INHIBITORS OF INTERLEUKIN-23 RECEPTOR” (Janssen Pharmaceutica NV, priority 2023, published 2026).
Blank lines part the entries; values can stand above or below the binder they belong to. *1 amine or outer side, *2 acyl side, *3 side chain or, on linkers, in order; H or OH if unused. Bridges are numbered along the chain shown (N, C = ends). Primed or numbered codes have the meaning given here. Side-chain parts run from the residue outwards. [ ]: non-standard residue; d: D form. PEG2′ = PEG2 spacer unit (not further defined); Trp(7-Me) = Cc1cccc2c(C[C@H](N)C(=O)O)c[nH]c12; γGlu = O=C(O)[C@H](CCC(=O)[*:2])N[*:1]; 2Nal = N[C@@H](Cc1ccc2ccccc2c1)C(=O)O; AEF = NCCOc1ccc(C[C@H](N)C(=O)O)cc1; 3Pal = N[C@@H](Cc1cccnc1)C(=O)O; NMeK = CN[C@@H](CCCCN)C(=O)O; Pen = CC(C)(S)[C@H](N)C(=O)O; PEG12′ = not defined here; PEG4′ = not defined here; dAEF′ = not defined here; Thp = NC1(C(=O)O)CCOCC1; Sar = CNCC(=O)O

Columns and labels:
[1] = target: T1, interleukin-23 receptor (IL-23R) (UniProt Q5VWK5 24-629, limits assumed); experiment: cell-based or functional assay
T1 sequence (looked up): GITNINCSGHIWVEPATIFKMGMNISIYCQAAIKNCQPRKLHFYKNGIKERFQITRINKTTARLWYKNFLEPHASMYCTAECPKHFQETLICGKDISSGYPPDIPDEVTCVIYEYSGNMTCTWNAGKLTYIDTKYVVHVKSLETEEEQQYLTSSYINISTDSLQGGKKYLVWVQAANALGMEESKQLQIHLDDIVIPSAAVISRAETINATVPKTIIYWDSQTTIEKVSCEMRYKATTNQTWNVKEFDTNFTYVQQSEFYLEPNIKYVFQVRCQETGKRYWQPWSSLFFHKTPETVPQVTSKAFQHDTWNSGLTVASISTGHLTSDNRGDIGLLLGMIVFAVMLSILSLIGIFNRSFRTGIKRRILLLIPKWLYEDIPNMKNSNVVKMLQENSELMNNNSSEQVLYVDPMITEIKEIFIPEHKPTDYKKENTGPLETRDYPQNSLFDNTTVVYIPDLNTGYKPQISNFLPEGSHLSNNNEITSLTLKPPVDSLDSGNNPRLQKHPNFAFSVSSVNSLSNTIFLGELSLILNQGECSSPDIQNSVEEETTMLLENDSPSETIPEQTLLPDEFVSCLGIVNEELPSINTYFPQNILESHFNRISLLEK

[2] = target: T1, interleukin-23 receptor (IL-23R); experiment: cell-based or functional assay; remark: listed apart in the source

- PBMC pSTAT3 IC50 [1]: < 0.5 nM
- IC50, IL23R reporter assay [2]: < 50 nM
B1: SEQ ID NO: 21 (peptide)
peptide: Ac-[dR][Pen]NT[Trp(7-Me)]K(Ac)[Pen][AEF][2Nal][Thp]K([PEG2′-PEG2′-γGlu-C18OH])N[3Pal]X-NH2
modifications: disulfide 2-7 (inferred); not fully specified (residue 14); printed as MeCO-r-Pen(3)-N-T-7MeW-K(Ac)-Pen(3)-AEF-2Nal-THP-K(PEG2PEG2gEC18OH)-N-3Pya-NMeK(d)-CONH2

- PBMC pSTAT3 IC50 [1]: < 0.5 nM
- IC50, IL23R reporter assay [2]: < 50 nM
Binder: Ac-[dR][Pen]K([PEG12′-γGlu-C18OH])T[Trp(7-Me)]K(Ac)[Pen][AEF][2Nal][Thp]EN[3Pal][Sar]-NH2 (disulfide 2-7 (inferred)) [SEQ ID NO: 105]

- PBMC pSTAT3 IC50 [1]: < 0.5 nM
- IC50, IL23R reporter assay [2]: < 50 nM
B2: SEQ ID NO: 101 (peptide)
peptide: XNTXXXXXXXNXXK
modifications: MeCO-Pen(3)-N-T-7MeW-K(Ac)-Pen(3)-AEF-2Nal-THP-K(Ac)-N-3Pya-Sar-K(PEG12gEC20OH)-CONH2

- PBMC pSTAT3 IC50 [1]: < 0.5 nM
- IC50, IL23R reporter assay [2]: < 50 nM
Binder: XNTXXXXXXKNXX (MeCO-Pen(3)-N-T-7MeW-K(Ac)-Pen(3)-AEF-2Nal-THP-K(PEG12gEC18OH)-N-3Pya-Sar-CONH2) [SEQ ID NO: 100]

- PBMC pSTAT3 IC50 [1]: < 0.5 nM
- IC50, IL23R reporter assay [2]: < 50 nM
B3: SEQ ID NO: 3 (peptide)
peptide: XNTXXXXXXENXXK
modifications: MeCO-Pen(3)-N-T-7MeW-K(Ac)-Pen(3)-AEF-2Nal-THP-E-N-3Pya-Sar-K(PEG2NMePEG2NMegENMeC18Tetrazole)-CONH2

- PBMC pSTAT3 IC50 [1]: < 0.5 nM
- IC50, IL23R reporter assay [2]: < 50 nM
Binder: Ac-[dR][Pen]NT[Trp(7-Me)]K(Ac)[Pen][AEF][2Nal][Thp]K([PEG4′-AcCl])N[3Pal][Sar]K([PEG2′-PEG2′-γGlu-C18OH])-NH2 (disulfide 2-7 (inferred)) [SEQ ID NO: 4]

- PBMC pSTAT3 IC50 [1]: < 0.5 nM
- IC50, IL23R reporter assay [2]: < 50 nM
Binder: Ac-[dK]([PEG12′-γGlu-C18OH])[Pen]NT[Trp(7-Me)]K(Ac)[Pen][AEF][2Nal][Thp]K(Ac)N[3Pal][Sar]-NH2 (disulfide 2-7 (inferred)) [SEQ ID NO: 98]

- PBMC pSTAT3 IC50 [1]: ≥ 5 nM
- IC50, IL23R reporter assay [2]: ≥ 500 nM
B4: SEQ ID NO: 150 (peptide)
peptide: XNTXXXXXXENXXK
modifications: not fully specified; MeCO-Pen(3)-N-T-7MeW-K(Ac)-Pen(3)-AEF-2Nal-THP-E-N-3Pya-Sar-K(PEG2PEG2gEC18OH)-CONH(PEG3a)

- PBMC pSTAT3 IC50 [1]: < 0.5 nM
- IC50, IL23R reporter assay [2]: < 50 nM
Binder: Ac-[dR][Pen]K([PEG12′-γGlu-C20OH])T[Trp(7-Me)]K(Ac)[Pen][AEF][2Nal][Thp]EN[3Pal][Sar]-NH2 (disulfide 2-7 (inferred)) [SEQ ID NO: 99]

- PBMC pSTAT3 IC50 [1]: < 0.5 nM
- IC50, IL23R reporter assay [2]: < 50 nM
B5: SEQ ID NO: 30 (peptide)
peptide: Ac-[dR][Pen]XT[Trp(7-Me)]K(Ac)[Pen][AEF][2Nal][Thp]EN[3Pal][NMeK]([PEG2′-PEG2′-γGlu-C18OH])-NH2
modifications: disulfide 2-7 (inferred); not fully specified (residue 3); printed as MeCO-r-Pen(3)-K(d)-T-7MeW-K(Ac)-Pen(3)-AEF-2Nal-THP-E-N-3Pya-NMeK(PEG2PEG2gEC18OH)-CONH2

- PBMC pSTAT3 IC50 [1]: < 0.5 nM
- IC50, IL23R reporter assay [2]: < 50 nM
B6: SEQ ID NO: 33 (peptide)
peptide: Ac-[dK]([PEG2′-PEG2′-γGlu-C18OH])[Pen]NT[Trp(7-Me)]K(Ac)[Pen][AEF][2Nal][Thp]XN[3Pal][Sar]-NH2
modifications: disulfide 2-7 (inferred); not fully specified (residue 11); printed as MeCO-k(PEG2PEG2gEC18OH)-Pen(3)-N-T-7MeW-K(Ac)-Pen(3)-AEF-2Nal-THP-K(d)-N-3Pya-Sar-CONH2

- PBMC pSTAT3 IC50 [1]: < 0.5 nM
- IC50, IL23R reporter assay [2]: < 50 nM
Binder: Ac-[dR][Pen]NT[Trp(7-Me)]K(Ac)[Pen][AEF][2Nal][Thp]EN[3Pal][Sar]K([PEG12′-γGlu-C20OH])-NH2 (disulfide 2-7 (inferred)) [SEQ ID NO: 134]

- PBMC pSTAT3 IC50 [1]: < 0.5 nM
- IC50, IL23R reporter assay [2]: < 50 nM
B7: SEQ ID NO: 102 (peptide)
peptide: XNTXXXXXXXNXXK
modifications: MeCO-Pen(3)-N-T-7MeW-K(Ac)-Pen(3)-AEF-2Nal-THP-K(Ac)-N-3Pya-Sar-K(PEG12gEC18OH)-CONH2

- PBMC pSTAT3 IC50 [1]: < 0.5 nM
- IC50, IL23R reporter assay [2]: < 50 nM
B8: SEQ ID NO: 103 (peptide)
peptide: XNTXXXXXXENXXK
modifications: MeCO-Pen(3)-N-T-7MeW-K(Ac)-Pen(3)-AEF-2Nal-THP-E-N-3Pya-Sar-K(PEG12gEC20OH)-CONH2

- PBMC pSTAT3 IC50 [1]: < 0.5 nM
- IC50, IL23R reporter assay [2]: < 50 nM
B9: SEQ ID NO: 27 (peptide)
peptide: XNTXXXXXXENXXK
modifications: MeCO-Pen(3)-N-T-7MeW-K(Ac)-Pen(3)-AEF-2Nal-THP-E-N-3Pya-Sar-K(PEG2PEG2gEC18OH)-CONH2

- PBMC pSTAT3 IC50 [1]: < 0.5 nM
- IC50, IL23R reporter assay [2]: < 50 nM
Binder: Ac-[Pen]K([PEG12′-γGlu-C18OH])T[Trp(7-Me)]K(Ac)[Pen][AEF][2Nal][Thp]EN[3Pal][Sar]-NH2 (disulfide 1-6 (inferred)) [SEQ ID NO: 97]

- PBMC pSTAT3 IC50 [1]: < 0.5 nM
- IC50, IL23R reporter assay [2]: < 50 nM
B10: SEQ ID NO: 35 (peptide)
peptide: Ac-[dK]([PEG2′-PEG2′-γGlu-C18OH])[Pen]XT[Trp(7-Me)]K(Ac)[Pen][AEF][2Nal][Thp]EN[3Pal][Sar]-NH2
modifications: disulfide 2-7 (inferred); not fully specified (residue 3); printed as MeCO-k(PEG2PEG2gEC18OH)-Pen(3)-K(d)-T-7MeW-K(Ac)-Pen(3)-AEF-2Nal-THP-E-N-3Pya-Sar-CONH2

- PBMC pSTAT3 IC50 [1]: < 0.5 nM
- IC50, IL23R reporter assay [2]: < 50 nM
B11: SEQ ID NO: 34 (peptide)
peptide: Ac-[dK]([PEG2′-PEG2′-γGlu-C18OH])[Pen]NT[Trp(7-Me)]X[Pen][AEF][2Nal][Thp]EN[3Pal][Sar]-NH2
modifications: disulfide 2-7 (inferred); not fully specified (residue 6); printed as MeCO-k(PEG2PEG2gEC18OH)-Pen(3)-N-T-7MeW-K(d)-Pen(3)-AEF-2Nal-THP-E-N-3Pya-Sar-CONH2

- PBMC pSTAT3 IC50 [1]: < 0.5 nM
- IC50, IL23R reporter assay [2]: < 50 nM
B12: SEQ ID NO: 116 (peptide)
peptide: {HOC18-γGlu-PEG12′}-[Pen]NTK(Ac)[Pen][AEF][2Nal][Thp]EN[3Pal][Sar]-NH2
modifications: disulfide 1-5 (inferred); not fully specified; printed as HOC18gEPEG12CO-Pen(3)-N-T-K(Ac)-Pen(3)-AEF-2Nal-THP-E-N-3Pya-Sar-CONH2

- PBMC pSTAT3 IC50 [1]: < 0.5 nM
- IC50, IL23R reporter assay [2]: < 50 nM
B13: SEQ ID NO: 104 (peptide)
peptide: Ac-[dK]([PEG12′-γGlu-C20OH])[Pen]NT[Trp(7-Me)]K(Ac)[Pen][AEF][2Nal][Thp]K(Ac)N[3Pal]X-NH2
modifications: disulfide 2-7 (inferred); not fully specified (residue 14); printed as MeCO-k(PEG12gEC20OH)-Pen(3)-N-T-7MeW-K(Ac)-Pen(3)-AEF-2Nal-THP-K(Ac)-N-3Pya-Ser-CONH2

- PBMC pSTAT3 IC50 [1]: < 0.5 nM
- IC50, IL23R reporter assay [2]: < 50 nM
Binder: Ac-[dR][Pen]NT[Trp(7-Me)]K(Ac)[Pen][AEF][2Nal][Thp]EN[3Pal][Sar]K([PEG12′-γGlu-C18OH])-NH2 (disulfide 2-7 (inferred)) [SEQ ID NO: 133]

- PBMC pSTAT3 IC50 [1]: < 0.5 nM
- IC50, IL23R reporter assay [2]: < 50 nM
B14: SEQ ID NO: 161 (peptide)
peptide: XNTXXXXXXENXXK
modifications: MeCO-Pen(3)-N-T-7MeW-K(Ac)-Pen(3)-AEF-2Nal-THP-E-N-3Pya-Sar-K(PEG12gEC18OH)-CONH2

- PBMC pSTAT3 IC50 [1]: ≥ 5 nM
- IC50, IL23R reporter assay [2]: ≥ 500 nM
B15: SEQ ID NO: 149 (peptide)
peptide: XNTXXXXXXENXXK
modifications: MeCO-Pen(3)-N-T-7MeW-K(Ac)-Pen(3)-AEF-2Nal-THP-E-N-3Pya-Sar-K(PEG2PEG2gEC18OH)-CON(Me)2

- PBMC pSTAT3 IC50 [1]: < 0.5 nM
- IC50, IL23R reporter assay [2]: < 50 nM
B16: SEQ ID NO: 22 (peptide)
peptide: Ac-[dR][Pen]NT[Trp(7-Me)]K(Ac)[Pen][dAEF′][2Nal][Thp]K([PEG2′-PEG2′-γGlu-C18OH])N[3Pal][Sar]-NH2
modifications: disulfide 2-7 (inferred); reading uncertain; also: printed as MeCO-r-Pen(3)-N-T-7MeW-K(Ac)-Pen(3)-AEF(d)-2Nal-THP-K(PEG2PEG2gEC18OH)-N-3Pya-Sar-CONH2

- PBMC pSTAT3 IC50 [1]: < 0.5 nM
- IC50, IL23R reporter assay [2]: < 50 nM
B17: SEQ ID NO: 26 (peptide)
peptide: Ac-K[Pen]NT[Trp(7-Me)]K(Ac)[Pen][AEF][2Nal][Thp]EN[3Pal][Sar]-NH2
modifications: disulfide 2-7 (inferred); not fully specified (residue 1); printed as MeCO-k(PEG12gEC20OH)-Pen(3)-N-T-7MeW-K(Ac)-Pen(3)-AEF-2Nal-THP-E-N-3Pya-Sar-CONH2

- PBMC pSTAT3 IC50 [1]: < 0.5 nM
- IC50, IL23R reporter assay [2]: < 50 nM
Binder: Ac-[dK]([PEG12′-γGlu-C18OH])[Pen]NT[Trp(7-Me)]K(Ac)[Pen][AEF][2Nal][Thp]EN[3Pal][Sar]-NH2 (disulfide 2-7 (inferred)) [SEQ ID NO: 117]
